Reference: patent publication US20170022281A1 (AbbVie / Abbott, published 2017)

T1: human PRLR (Biacore antigen) (human, UniProt P16471 25-234, limits assumed)
T1 construct: The construct injected over captured antibody is not described (a soluble form is likely); also called huPRLR
T1 sequence: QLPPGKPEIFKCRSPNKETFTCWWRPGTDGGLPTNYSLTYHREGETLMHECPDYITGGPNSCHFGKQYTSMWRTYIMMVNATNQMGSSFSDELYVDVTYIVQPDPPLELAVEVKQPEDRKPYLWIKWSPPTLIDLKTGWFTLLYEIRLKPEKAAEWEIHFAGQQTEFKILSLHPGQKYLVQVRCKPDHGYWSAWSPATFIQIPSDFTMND

T2: human PRLR ECD-Fc fusion protein (human, UniProt P16471 25-233)
T2 construct: not shown: Fc region (captured by goat anti-human Fc)
T2 sequence: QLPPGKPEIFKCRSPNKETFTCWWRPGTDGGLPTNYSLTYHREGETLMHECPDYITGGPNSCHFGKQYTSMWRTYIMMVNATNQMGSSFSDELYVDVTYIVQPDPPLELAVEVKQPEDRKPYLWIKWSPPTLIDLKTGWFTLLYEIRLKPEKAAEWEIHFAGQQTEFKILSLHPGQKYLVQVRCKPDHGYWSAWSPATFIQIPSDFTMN

T3: cyno PRLR ECD-his6 protein (cyno)
T3 chain: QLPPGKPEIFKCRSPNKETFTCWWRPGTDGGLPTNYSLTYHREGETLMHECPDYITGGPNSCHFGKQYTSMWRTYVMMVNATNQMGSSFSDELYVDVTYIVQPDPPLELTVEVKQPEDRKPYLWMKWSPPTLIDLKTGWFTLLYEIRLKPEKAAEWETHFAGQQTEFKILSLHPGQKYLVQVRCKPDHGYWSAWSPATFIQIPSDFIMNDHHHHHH

T4: cyno PRLR (Biacore antigen) (cyno, UniProt A0A2K5WXK1 25-234)
T4 construct: also called cyPRLR
T4 sequence: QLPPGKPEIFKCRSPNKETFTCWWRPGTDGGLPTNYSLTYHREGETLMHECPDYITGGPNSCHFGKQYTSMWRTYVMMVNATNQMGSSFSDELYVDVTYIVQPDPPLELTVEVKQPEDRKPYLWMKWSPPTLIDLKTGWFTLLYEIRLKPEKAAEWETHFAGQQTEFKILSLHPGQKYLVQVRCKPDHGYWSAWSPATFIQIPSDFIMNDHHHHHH

T5: murine PRLR (Biacore antigen) (murine, UniProt Q08501 20-229, limits assumed)
T5 construct: also called muPRLR
T5 sequence (looked up): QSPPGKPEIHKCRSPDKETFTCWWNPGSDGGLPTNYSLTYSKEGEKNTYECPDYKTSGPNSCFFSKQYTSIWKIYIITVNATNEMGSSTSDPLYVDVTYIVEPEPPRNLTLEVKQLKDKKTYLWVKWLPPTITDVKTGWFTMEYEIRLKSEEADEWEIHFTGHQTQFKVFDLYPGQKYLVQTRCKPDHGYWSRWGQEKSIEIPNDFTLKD


Legend:
[1] = biological target: cyno PRLR on Baf3-cyPRLR cells (cyno); assay: cell-based or functional assay
[2] = biological target: T1, human PRLR (Biacore antigen); assay: SPR Biacore
Outline: (§1)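 Association rate, dissociation rate and dissociation constant were measured by surface plasmon resonance on a Biacore instrument. PRLR antigen was tested at 600 nM, 66.67 nM and 7.41 nM, a 3-point, 9-fold dilution series. Constants came from a 1:1 binding model fit (local Rmax, mass-transport term included) in Biacore T200 Evaluation Software.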

[3] = biological target: T1, human PRLR (Biacore antigen); assay: SPR simultaneous binding; PRLR held by surface mAb Ab39
Description: (§2) Running buffer was HBS-EP+ (10 mM Hepes, pH7.4, 150 mM NaCl, 3 mM EDTA, 0.05% surfactant). Assay was performed at 12° C. using Biacore T200 and CM5 sensor chips with anti-human IgG (Pierce) amine-coupled in all 4 flow cells to ˜2000 RU.
(§3) Separate test mAbs were captured in flowcells 2, 3 & 4 (flowcell 1 was reference, no test mAb). All 4 flowcells were then blocked by injection with isotype control mAb at 50 ug/ml. All 4 flowcells were then injected with antigen or buffer only (buffer only is for double referencing, done for each mAb pair individually). All 4 flowcells were then injected with 2nd test mAb at 10 ug/ml. All 4 flowcells were then regenerated with glycine, pH1.5.

[4] = biological target: T2, human PRLR ECD-Fc fusion protein; assay: ELISA on ECD
Outline: (§4)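 PRLR was captured on blocked plates for 1 h, then incubated 1 h with serial antibody dilutions in PBS pH 7.4/0.05% Tween 20 containing 10% Superblock. HRP secondary and TMB gave signal read at 450 nm, and EC50 came from curve fitting.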

[5] = biological target: T3, cyno PRLR ECD-his6 protein; assay: ELISA on ECD
Outline: as §4

[6] = biological target: T1, human PRLR (Biacore antigen); assay: SPR simultaneous binding; PRLR held by surface mAb chAb5
Description: as §2, §3

[7] = biological target: T1, human PRLR (Biacore antigen); assay: SPR simultaneous binding; PRLR held by surface mAb Ab21
Description: as §2, §3

[8] = biological target: T1, human PRLR (Biacore antigen); assay: SPR simultaneous binding; PRLR held by surface mAb Ab30
Description: as §2, §3

[9] = biological target: T1, human PRLR (Biacore antigen); assay: SPR simultaneous binding; PRLR held by surface mAb Ab19
Description: as §2, §3

[10] = biological target: T1, human PRLR (Biacore antigen); assay: SPR simultaneous binding; PRLR held by surface mAb Ab49
Description: as §2, §3

[11] = biological target: T1, human PRLR (Biacore antigen); assay: SPR simultaneous binding; PRLR held by surface mAb Ab48
Description: as §2, §3

[12] = biological target: T4, cyno PRLR (Biacore antigen); assay: SPR Biacore
Outline: as §1

[13] = biological target: T5, murine PRLR (Biacore antigen); assay: SPR Biacore
Outline: as §1

Binder | Baf3-cyPRLR proliferation IC50 [1] [µg/mL] | Kd [2] [nM] | koff [2] [s⁻¹] | kon [2] [M⁻¹ s⁻¹] | solution mAb binding, % of PRLR binding [3] [%] | EC50 [4] [nM] | EC50 [5] [nM] | solution mAb binding, % of PRLR binding [6] [%] | solution mAb binding, % of PRLR binding [7] [%] | solution mAb binding, % of PRLR binding [8] [%] | solution mAb binding, % of PRLR binding [9] [%] | solution mAb binding, % of PRLR binding [10] [%] | solution mAb binding, % of PRLR binding [11] [%] | Kd [12] [nM] | koff [12] [s⁻¹] | kon [12] [M⁻¹ s⁻¹] | Kd [13] [nM] | koff [13] [s⁻¹] | kon [13] [M⁻¹ s⁻¹]
Ab49 (antibody, human IgG1, kappa, V domains shown, humanized from Ab8; G1; also called Ab3 HC.1a and Ab3 LC.1b) VH: EVQLVQSGAEVKKPGASVKVSCKASGYTFTDYNIHWVRQAPGQGLEWIGYIYPNNDGTGYNQKFKSRATLTVDNSTSTAYMELRSLRSDDTAVYYCARGDGNYVGDMDYWGQGTTVTVSS VL: DIQMTQSPSSLSASVGDRVTITCRASENIYSYLAWYQQKPGKAPKLLVYNAKTLAEGVPSRFSGSGSGTDFTLTISSLQPEDFATYYCQHHYATPFTFGQGTKLEIKR | 3.49 | 0.214 | 0.00012 | 558000 | -2 | 0.0954 | 0.361 | 0 | -1 | -1 | -1 | -1 | 0 | – | – | – | – | – | –
Ab12 (antibody, V domains shown, murine monoclonal, isotype G2a; reported as PRLR agonist; also called murine Ab12) VH: DVQLQESGPGLVKPSQSLSLTCTVTGYSITSDYAWNWIRQFPGNKLEWMGYIGYSGRTSFNPSLKSRISITRDTSKNQFFLQLNSVTTEDTATYYCARGGFAMDYWGQGTSVTVSS VL: QIVLTQSPGIMSASPGEKVTMTCSASSSVTYMYWYQQKPRSSPKPWIYLTSNLASGVPARFSGSGSGTSYSLTISSMEAEDGATYYCQQWSSTPPLTFGGGTKLELN | > 30 | 6.6 | 0.00186 | 282000 | – | 0.069 | < 4 | – | – | – | – | – | – | – | – | – | – | – | –
Ab6 (antibody, V domains shown, murine monoclonal, isotype G1; also called murine Ab6) VH: QVQLQQPGAELVMPGSSVKLSCKASGYTFTTYWMHWVKQRPGQGLEWIGEIDPSDSYSNYNQKFKDKATLTVDKSSSTAYMQLSSLTSEDSAVYYCARNGGLGPAWFSYWGQGTLVTVSA VL: DIVMTQSQKFMSTTVGDRVSITCKASQYVGTAVAWYQQKPGQSPKLLIYSASNRYTGVPDRFTDSGSGTDFTLTISNLQSEDLADYFCQQYSSYPWTFGGGTKLEIK | 0.44 | 0.45 | 0.000576 | 1.28e+06 | – | 0.086 | – | – | – | – | – | – | – | 0.807 | 0.00109 | 1.36e+06 | 635 | 0.394 | 622000
Ab10 (antibody, V domains shown, murine monoclonal, isotype G2a; also called murine Ab10) VH: EVQLHQSGPELVKPGASVKISCKASGYTFTDYNMHWMKQSHGKSLEWIGYFYPYNGGTGYNQEFKNKATLTVDISSSTAYMELRRLTSEDSAVYYCARGGWGIYYAMDYWGQGTSVTVSS VL: DIQMTQSPASLSASVGETVTITCRASENIYSYLTWYQQKQGKSPQLLVYNAKTLAEGVPSRFSGSGSGTQFSLKINSLQPEDFGSYHCQHHSVTPLTFGAGTKLELK | > 10 | 1.41 | 0.000228 | 161000 | – | 0.147 | – | – | – | – | – | – | – | – | – | – | – | – | –
Ab5 (antibody, V domains shown, murine monoclonal, isotype G2a; also called murine Ab5) VH: QVQLQQPGAELVRPGTSVKLSCKASGYTFTSFWMHWVKQRPGQGLEWIGVIDPSDTYTNYNQKFKGKATLTVDTSSSTAYMQLSSLTSEDSAVYYCARGDYSNWFTYWGQGTLVTVSA VL: DVVMTQTPLSLPVSLGDQASISCRSSQRLVHSNGNTYLHWYLQKPGQSPKLLIYKVSNRFSGVPDRFSGSGSGTDFTLKISRVEAEDLGVYFCSQSTHVPWTFGGGTKLEIK | 0.38 | 0.572 | 0.000203 | 355000 | – | 0.071 | 0.095 | – | – | – | – | – | – | 0.7 | 0.000235 | 336000 | 14.4 | 0.00291 | 202000
Ab7 (antibody, V domains shown, murine monoclonal, isotype G1; also called murine Ab7) VH: QVQLQQPGAELVMPGTSVKLSCKASGYTFTSYWIHWVKQRPGQGLEWIGEIDPSDSYTNYNQKFKGKATLTVDRSSSTAYMQLSSLTSEDSAVYYCGRSFFTNWFAYWGQGTLVTVSA VL: DVVMTQTPLSLPVSLGDQASISCRSSQSLVHSNGNTYLHWYLQKPGQSPKLLIYKVSNRFSGVPDRFSGSGSGTDFTLKINRVEAEDLGVYFCSQSTHVPFTFGSGTKLEIK | 0.3 | 0.153 | 4.27e-05 | 280000 | – | 0.098 | 0.202 | – | – | – | – | – | – | 0.127 | 3.29e-05 | 259000 | 41.7 | 0.0035 | 84000
Ab11 (antibody, V domains shown, murine monoclonal, isotype G1; also called murine Ab11) VH: EVKLVESGGGLVQPGGSLKLSCAASGFTFSDYYMFWVRQTPEKSLEWVAYISNGGGSTYYPDTVKGRFTISRDNAKNTLYLQMSRLKSEDTAMYYCSRQLFYYGSRGAMGYWGQGTSVTVSS VL: DVLMTQTPLSLPVSLGDQASISCRSSQSIVHSNGNTYLEWYLQKPGQSPKLLIYKVSNRFSGVPDRFSGSGSGTDFTLKISRVEAEDLGVYYCFQGSHVPFTFGSGTKLEIK | 1.2 | 69.2 | 0.0211 | 305000 | – | 0.093 | 0.153 | – | – | – | – | – | – | – | – | – | – | – | –
Ab13 (antibody, V domains shown, murine monoclonal, isotype G2a; also called murine Ab13) VH: QVQLQQPGAELVRPGTSVKLSCKASGYTFTSFWMHWVKQRPGQGLEWIGVIDPSDSHTNYNQKFKGKATLTVNTSSSTAYMHLSSLTSEDSAVYYCARGDYSNWFTYWGQGTLVTVSA VL: DVVMTQTPFSLPVSLGDQASISCRSSQSLVHSNGNTYLHWYLQKPGQSPKLLIYKVSNRFSGVPDRFSGSGSGTDFTLKISRVEAEDLELYFCSQSTHVPWTFGGGTKLEIK | 0.85 | 0.997 | 0.000431 | 433000 | – | 0.07 | 0.143 | – | – | – | – | – | – | – | – | – | – | – | –
